Source: patent US20040229289A1, “Antigen binding peptides (abtides) from peptide libraries” (Cytogen Corporation, priority 1994, published 2004)
Where no end group is shown, it is not given here.

T1: PEM peptide (human)
T1 peptide: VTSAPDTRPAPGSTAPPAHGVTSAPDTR

T2: mimetope peptide 7E11-9.5 (not fully specified)
T2 peptide: LYANPGMYSRLHSPA

B1: E72 (peptide)
peptide: STPGCSGYSGSGDPRCLTCTACGNGHTRKTLTPAHGRSTHKEP
B2: E60 (peptide)
peptide: GDPECRGKPRGRWTGSLACTGCGNGPNSKICTRARGVSRNKGP
B3: E49 (peptide)
peptide: QARVSMAISCRSGPSDLMHQGCGYGPRCNPDTTDSGGSHTNTP
B4: V27 (peptide)
peptide: STCIGAEGEWKSFHNFLQCRDATSTSSSTLDPTALRFG
notes: stringent acid elution
B5: V40 (peptide)
peptide: YSATLWDQFGSRQVELWSNRHASSALPFASRASVLGSR
notes: stringent acid elution
B6: V45 (peptide)
peptide: PLTSGSSSEYRNRDDCPVYKYATNCPRLNFSPSRYSPF
notes: stringent acid elution
B7: V32 (peptide)
peptide: GDAYGGIFSRPRQGLADSYIHASYTGKHFFRGPRPPTR
notes: stringent acid elution
B8: A15 (peptide)
peptide: SFMDYFFHTPEPKPAGYPNAYTDPKHPA
notes: acid eluted
B9: A16 (peptide)
peptide: SVHGAFLDSFFPWAADGPHGRGRLTSF
notes: acid eluted
B10: A39 (peptide)
peptide: SLGLPWIDVFGRSSAEPWPFGRTNLPRS
notes: acid eluted
B11: A54 (peptide)
peptide: SSSIFDYAPFSWGSAGLSNSSINVFERS
notes: acid eluted
B12: V10 (peptide)
peptide: GSKRSCWGTTISNYFRPVPEGCGSASSINPNTNTGRLPSLHRQ
notes: stringent acid elution
B13: V7 (peptide)
peptide: SSASSGCLGRAEHLDLDSVWGCGSQADMSRRYSPWYGRPRTGV
notes: stringent acid elution
B14: V39 (peptide)
peptide: DPCEDGYWLSSVGRAGASIRGCGAIRRSSRTLTAEYSTRASNH
notes: stringent acid elution
B15: V4 (peptide)
peptide: NVMWSSSKAGIRDCSQVPPGGCGPVNRHRASPPLTPFRHGSIR
notes: stringent acid elution
B16: V44 (peptide)
peptide: WSIGTHTGPEGKFRIPCDRSGCGGTTLTHGGLNSSPTGQHERP
notes: stringent acid elution
B17: 7E11-C5 abtide clone 13 (peptide)
peptide: RCSPIWGISYPFGLLSSNPGVCHSSDAETNIRNDILTT
B18: 7E11-C5 abtide clone 16 (peptide)
peptide: GHSNYCFVSTLGMPIVGFPSINARGLIHYGGSDPRLAA
B19: V1 (peptide)
peptide: IDSSKNRISGTGYLSFPHIRHANRRHMADDSNLAPGPS
notes: acid eluted
B20: MA-32 (peptide)
peptide: DQIGSRPQTTSRSISGSWWENAKTLWQQDYAFSAPNAA
notes: acid eluted
B21: V23 (peptide)
peptide: LSDAWGNFTTSYRDSAGFPSHAMTTSQGGKRNHASRFP
notes: acid eluted
B22: V21 (peptide)
peptide: VQLDDTSPRASGQETSQSEYDARPLLSKFAIPRPWSR
notes: acid eluted

Biological target: T1, PEM peptide
Assay: phage ELISA on PEM

Does B1 bind?
Result: no binding

Does B2 bind?
Result: no binding

Does B3 bind?
Result: no binding

Biological target: T1, PEM peptide
Assay: phage panning on PEM peptide, D38 library, stringent acid elution
Procedure: (§1) A peptide comprising this sequence was synthesized and used to isolate abtides from TSAR peptide libraries by methods analogous to those described above. In these experiments, the specific TSAR libraries used were R26, D38 and DC43. See FIGS. 10-12 for description of these libraries. Phage bound to PEM were eluted by either standard acid elution methods, stringent acid elution methods where phage were incubated with the PEM peptide for only 10 minutes prior to washing and elution, or were eluted using excess PEM peptide. Phage from each library were isolated that express peptides capable of binding to PEM.

Does B4 bind?
Result: binds

Does B5 bind?
Result: binds

Does B6 bind?
Result: binds

Does B7 bind?
Result: binds

Biological target: T1, PEM peptide
Assay: phage panning on PEM peptide, R26 library, acid eluted
Procedure: as §1

Does B8 bind?
Result: binds

Does B9 bind?
Result: binds

Does B10 bind?
Result: binds

Does B11 bind?
Result: binds

Biological target: T1, PEM peptide
Assay: phage panning on PEM peptide, DC43 library, stringent acid elution
Procedure: as §1

Does B12 bind?
Result: binds

Does B13 bind?
Result: binds

Does B14 bind?
Result: binds

Does B15 bind?
Result: binds

Does B16 bind?
Result: binds

Biological target: T2, mimetope peptide 7E11-9.5
Assay: phage panning of TSAR-9 library on plate-bound 7E11-9.5 peptide
Procedure: Next, the mimetope peptide was used to isolate abtides from a peptide library. Fifty to one hundred microliters of the solution of this peptide was used to coat the wells of a 96-well plate, the wells were blocked with 0.5% BSA in PBS, and the wells were used for screening. An aliquot of the TSAR-9 random phage library (containing approximately 3×10¹⁰ phage particles) was used as in the initial screening, and 4 rounds of screening were performed. After the first two rounds, the phage were amplified. Two more rounds of screening were then performed. By this procedure, phage from the TSAR-9 library that expressed peptides capable of binding to the 7E11-9.5 mimetope peptide were identified and isolated. The peptides containing the binding domains of these phage are abtides and were discovered to mimic the binding specificities of monoclonal antibody 7E11-C5. These abtides are termed “7E11-C5 abtides.”

Does B17 bind?
Result: binds

Does B18 bind?
Result: binds

Biological target: T1, PEM peptide
Assay: phage panning on PEM peptide, D38 library, acid eluted
Procedure: as §1

Does B19 bind?
Result: binds

Does B20 bind?
Result: binds

Does B21 bind?
Result: binds

Does B22 bind?
Result: binds
